Bridges are numbered along the chain shown (N, C = ends). [ ]: non-standard residue; d: D form. pY = N[C@@H](Cc1ccc(OP(=O)(O)O)cc1)C(=O)O; R8 = C=CCCCCCC[C@@](C)(N)C(=O)O; hLeu = CC(C)CC[C@H](N)C(=O)O; S5 = C=CCCC[C@](C)(N)C(=O)O; Cou6 = not defined here; Cou8 = not defined here; βAla = NCCC(=O)O
T1: MDMX (In-house, 40 kD), O15151
T1 chain: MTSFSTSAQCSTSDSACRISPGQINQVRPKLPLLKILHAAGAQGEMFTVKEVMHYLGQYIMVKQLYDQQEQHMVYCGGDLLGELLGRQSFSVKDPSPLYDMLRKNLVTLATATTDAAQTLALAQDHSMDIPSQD

T2: MDMX (In-house, 40 kD) (UniProt O15151)
T2 sequence (looked up): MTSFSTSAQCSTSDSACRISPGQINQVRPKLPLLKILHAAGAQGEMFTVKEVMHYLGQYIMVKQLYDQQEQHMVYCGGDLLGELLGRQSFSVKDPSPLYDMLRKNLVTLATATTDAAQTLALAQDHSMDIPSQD


Legend:
[1] = target: T1, MDMX (In-house, 40 kD), O15151; assay: competitive FP vs FAM-labelled linear peptide; grade + = greater than 1000 nM; conditions: remark: other sources report otherwise
MDM2 (In-house, 41 kD) = MDM2 (In-house, 41 kD) (UniProt Q00987); assay: competitive fluorescence polarization, MDM2 with FAM-labeled linear peptide; graded scale of paragraph 458
Sequence of MDM2 (In-house, 41 kD) (Q00987 1-138 limits assumed): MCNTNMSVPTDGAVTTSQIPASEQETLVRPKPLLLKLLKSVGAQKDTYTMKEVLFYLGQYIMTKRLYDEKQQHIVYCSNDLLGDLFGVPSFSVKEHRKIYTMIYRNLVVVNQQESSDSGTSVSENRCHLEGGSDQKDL

MDMX (In-house, 40 kD) = target: T2, MDMX (In-house, 40 kD); assay: competitive fluorescence polarization, MDMX with FAM-labeled linear peptide; graded scale of paragraph 458
[2] = target: MDM2 (In-house, 41 kD), Q00987; assay: competitive FP vs FAM-labelled linear peptide; grade + = greater than 1000 nM; conditions: remark: other sources report otherwise
Sequence of MDM2 (In-house, 41 kD), Q00987 (Q00987 1-138 limits assumed): as above

Row | Binder | IC50 [1] [nM] | Ki [1] [nM] | Ki (MDM2 (In-house, 41 kD)) [nM] | Ki (MDMX (In-house, 40 kD)) [nM] | Ki [2] [nM]
1 | Cou6-[βAla]LTF[R8]EYWAQ[hLeu][S5]SAA-NH2 (staple 5-12; reading uncertain) [SP446] | > 1000 | > 1000 | – | – | –
2 | Ac-LTF[R8]E[pY]WAQL[S5]AAAAA[dA]-NH2 (staple 4-11) [peptidomimetic macrocycle SP615, Ac-LTF$r8EpYWAQL$AAAAAa-NH2] | – | – | < 10 | < 10 | –
3 | Cou8-[βAla]LTF[R8]EYWAQ[hLeu][S5]SAA-NH2 (staple 5-12; reading uncertain) [SP447] | > 1000 | > 1000 | – | – | –
4 | Ac-LTA[R8]EYWAQL[S5]AAAAA[dA]-NH2 (staple 4-11) [SP560] | – | > 1000 | – | – | > 1000

From patent publication US8927500
